Experimental data: patent publication US20230330253A1

Biological target: human claudin 18.2 (CLDN18.2) (human)
Experiment: cell-based or functional assay

- Fluorescence, pHAb internalization on MKN45-CLDN18.2 cells, 20 nM antibody, normalized by DAR: 854
- Fluorescence, pHAb internalization on MKN45-CLDN18.2 cells, 100 nM antibody, normalized by DAR: 2700
Substance: IgG (Control) (antibody)
